These results are taken from PMC6202311, “Substrate Recognition and Autoinhibition in the Central Ribonuclease RNase E” (Molecular Cell, 2018).

Data set [1] deals with the molecule itself. The data set can be described thus: crystal structure; RNase E (1-510) D303R, D346R co-crystallised with full-length sRNA RprA; 3.95 Å, space group P6(1); 0.1 M KCl, 0.01 M MgCl2, 0.05 M Tris-HCl pH 8.5, 30% PEG 400, 20°C; tetramer as a dimer of dimers.
Data set [2] deals with the molecule itself. Kind of data set: crystal structure; RNase E (1-529) D303R, D346R co-crystallised with 5' monophosphorylated MicC-ompD fusion RNA (1:1 molar ratio); 3.0 Å, space group C2; open-state quaternary structure.

B1: RNase E (1–510) D303R, D346R (domain or fragment)
chain: not shown
notes: Crystallised with full-length sRNA RprA; also called RNase E (1–511); source: E. coli BL21(DE3), purified (nickel HiTrap Chelating, optional heparin or butyl Sepharose, gel filtration)
Broadly, the stoichiometry N is a count of units in the complex or per binding partner. On to B1, for which the “stoichiometry N” value in data set [1] is 4.

B2: RNase E (1–529) D303R, D346R (domain or fragment)
chain: not shown
notes: Crystallised with a 5' monophosphorylated MicC-ompD fusion RNA; Prepared as in Callaghan et al., 2005; cloned in pET16; source: E. coli BL21(DE3), purified (nickel HiTrap Chelating, optional heparin or butyl Sepharose, gel filtration)
As to B2, the binding result in data set [2] is recorded as “binds”.
